Data taken from patent publication US20110123511A1 (ICAHN SCHOOL OF MEDICINE AT MOUNT SINAI, published 2011).
Changes are numbered by the printed parent chain.

B1: vSET triple mutant KR(M)R-to-AA(M)A (aa 85-88) (enzyme)
chain: MFNDRVIVKKSPLGGYGVFARKSFEKGELVEECLCIVRHNDDWGTALEDYLFSRKNMSAMALGFGAIFNHSKDPNARHELTAGLAAMAIFTIKPIAIGEEITISYGDDYWLSRPRLTQN
notes: elutes as a dimer like the wild type; also called KR(M)R/AA(M)A
B2: recombinant wild-type vSET expressed in E. coli BL21 (enzyme)
chain: B1 chain with A85K, A86R, A88R
notes: also called hexa-histidine tagged vSET; not shown: tag in the

Molecular target: the molecule itself
Assay: gel filtration chromatography (self-association, homodimer)

Protein	binding result
B1	binds
B2	binds
